# According to patent US7399466B2, “Method and compositions for promoting osteogenesis” (Enobia Pharma Inc., priority 2000, dated 2008):
# “And” between values parts separate entries of the source, which are not always exact repeats. Equal values may be shown once. Read-outs that look alike come from different tables or passages of the source. Bridges are numbered along the chain shown (N, C = ends). Where no end group is shown, it is not given here. [ ]: non-standard residue; d: D form. Gla = N[C@@H](CC(C(=O)O)C(=O)O)C(=O)O
# T1: secPHEX (Homo sapiens, UniProt P78562)
# T1 construct: made in house; host or cells: LLC-PK1 cells (porcine kidney; ATCC No. CRL-1392), stably transfected; purified from culture medium
# T1 sequence (P78562 46-749): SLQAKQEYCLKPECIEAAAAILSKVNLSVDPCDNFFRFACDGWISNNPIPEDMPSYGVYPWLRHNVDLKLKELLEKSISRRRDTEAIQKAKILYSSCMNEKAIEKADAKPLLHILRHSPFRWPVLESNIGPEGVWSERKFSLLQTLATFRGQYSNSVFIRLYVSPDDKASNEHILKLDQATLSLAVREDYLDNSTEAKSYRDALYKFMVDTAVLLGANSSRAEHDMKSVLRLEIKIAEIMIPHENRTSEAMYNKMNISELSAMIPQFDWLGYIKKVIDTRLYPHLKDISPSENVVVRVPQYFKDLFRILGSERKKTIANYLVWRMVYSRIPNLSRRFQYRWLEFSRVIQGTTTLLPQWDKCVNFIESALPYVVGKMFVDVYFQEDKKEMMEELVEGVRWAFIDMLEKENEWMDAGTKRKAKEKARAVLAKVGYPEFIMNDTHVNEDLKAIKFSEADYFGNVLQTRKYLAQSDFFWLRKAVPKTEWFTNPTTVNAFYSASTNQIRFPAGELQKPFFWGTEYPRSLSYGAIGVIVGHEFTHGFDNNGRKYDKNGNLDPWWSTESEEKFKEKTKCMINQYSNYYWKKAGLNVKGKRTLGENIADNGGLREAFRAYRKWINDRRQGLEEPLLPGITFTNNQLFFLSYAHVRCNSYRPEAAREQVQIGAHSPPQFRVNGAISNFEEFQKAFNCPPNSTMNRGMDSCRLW
# T2: osteocalcin (Homo sapiens, UniProt P02818)
# T2 construct: The mature peptide is 49 amino acids long with 3 Gla residues and one difulfide bond; purchased Peptide Research Institute, Japan
# T2 sequence (P02818 52-100): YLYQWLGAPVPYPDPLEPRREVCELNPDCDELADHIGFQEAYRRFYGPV
# What was measured:
# [1] = molecular target: T1, secPHEX; test: secPHEX enzymatic assay: inhibition of PTHrP107-139 hydrolysis (RP-HPLC); assay type: biochemical
# Procedure: (§1) One μg of purified secPHEX or secPHEXE581V was incubated with 5 μg of peptide substrate for 30 min at 37° C. in a volume of 200 μl of 50 mM MES (2-(N-morpholino) ethanesulfonic acid) pH6.5, 150 mM NaCl. Peptide PTHrP107-139 (human origin and obtained from Bachem, Philadelphia, Pa., U.S.A. or Peninsula Laboratories, Belmont, Calif., U.S.A.), used as a substrate, was prepared as 1 μg/μl solutions also containing 1 μg/μl of the tripeptide Tyr-Gly-Gly. This latter peptide, which is not a PHEX substrate, was used as an internal standard. Peptide substrate AWLDSGV (Dr Gilles Lajoie, Waterloo Peptide Synthesis C2-360 University of Waterloo, Waterloo, ON Canada) (SEQ ID NO: 1) was digested with secPHEX in the same manner as described above for PTHrP107-139. To determine osteocalcin inhibitory potency on secPHEX activity, osteocalcin (Peptide Research Institute, Japan or E. coli-produced) was added to the reaction mixture to final concentrations varying from 10^−8 to 5×10^−4 M. To determine the effect of agents on the inhibitory activity of osteocalcin, the agents were added to a reaction mixture containing secPHEX, peptide substrate and 5×10^−6 M osteocalcin. […] Following the incubation period, hydrolysis was stopped by the addition of EDTA to a final concentration of 5 mM. The potentiating agent was identified when the intact substrate was determined to be present in a […] concentration than in the absence of the potentiating agent (see FIG. 6). Results were quantified by comparing, after normalization for the amounts of peptide Tyr-Gly-Gly present in the samples, the areas under the peaks of the substrate.
# Identification and quantification of the enzymatic activity of secPHEX on the PTHrP107-139 peptide was performed by reverse phase high performance liquid chromatography (RP-HPLC) on a C18 μBondapak analytical column (Waters, Mississauga, ON, Canada) with a UV detector set at 214 nm. Peptides were resolved with a linear gradient of 5% B to 85% B in 45 min at the flow rate of 0.4 ml/min [mobile phase A=0.1% trifluoroacetic acid; mobile phase B=80% acetonitrile (CH3CN), 0.1% trifluoroacetic acid].
# [2] = molecular target: T2, osteocalcin; test: Effect of Ca2+ on the inhibitory action of osteocalcin on secPHEX; assay type: biochemical
# Procedure: One μg of purified secPHEX or secPHEXE581V was incubated with 5 μg of peptide substrate for 30 min at 37° C. in a volume of 200 μl of 50 mM MES (2-(N-morpholino) ethanesulfonic acid) pH6.5, 150 mM NaCl. Peptide PTHrP107-139 (human origin and obtained from Bachem, Philadelphia, Pa., U.S.A. or Peninsula Laboratories, Belmont, Calif., U.S.A.), used as a substrate, was prepared as 1 μg/μl solutions also containing 1 μg/μl of the tripeptide Tyr-Gly-Gly. This latter peptide, which is not a PHEX substrate, was used as an internal standard. Peptide substrate AWLDSGV (Dr Gilles Lajoie, Waterloo Peptide Synthesis C2-360 University of Waterloo, Waterloo, ON Canada) (SEQ ID NO: 1) was digested with secPHEX in the same manner as described above for PTHrP107-139. […] The potentiating agent was identified when the intact substrate was determined to be present in a […] concentration than in the absence of the potentiating agent (see FIG. 6). Results were quantified by comparing, after normalization for the amounts of peptide Tyr-Gly-Gly present in the samples, the areas under the peaks of the substrate.
# (§2) Identification and quantification of the enzymatic activity of secPHEX on the PTHrP107-139 peptide was performed by reverse phase high performance liquid chromatography (RP-HPLC) on a C18 μBondapak analytical column (Waters, Mississauga, ON, Canada) with a UV detector set at 214 nm. […]
# [3] = Precipitation of secPHEX in low-salt solutions; assay type: physicochemical; details: NaCl added to reaction mixture
# Procedure: SecPHEX activity was assayed in 50 mM MES pH 6.5 containing 150 mM NaCl (26). Sodium chloride was added to the reaction mixture because we observed that secPHEX precipitated out in solutions containing less than 50 mM salt.
# [4] = system: PTHrP107-139; test: secPHEX activity: digestion of PTHrP107-139 (RP-HPLC, MALDI-Tof); assay type: biochemical, human
# Procedure: as §1, §2
# The pH optimum for the reaction was determined by progressively increasing the pH of the MES buffer from 5.0 to 7.0 or of a Tris buffer (50 mM Tris.HCl, 150 mM NaCl) from 7.0 to 9.0.
# [5] = system: Hyp male mice; test: secPHEX injection to Hyp mice, daily for 4 days: serum phosphate; assay type: in vivo, mouse; parameters: serum phosphate, Day 0 / serum phosphate, Day 4: unit not given here; details: for serum phosphate, Day 0 / serum phosphate, Day 4: individual Hyp mice; for serum phosphate, Day 0: baseline before treatment
# Procedure: Purified secPHEX solubilized in 1 mM phosphate pH 7.4, 150 mM NaCl, was administered intravenously daily for 4 or 14 consecutive days through the subclavian vein Hyp males (12 weeks of age). The same number of aged-matched Hyp male mice were treated with vehicle only as controls. […]
# [6] = system: Hyp male mice; test: secPHEX injection to Hyp mice, daily for 14 days: serum alkaline phosphatase and phosphate; assay type: in vivo, mouse
# Procedure: Purified secPHEX solubilized in 1 mM phosphate pH 7.4, 150 mM NaCl, was administered intravenously daily for 4 or 14 consecutive days through the subclavian vein Hyp males (12 weeks of age). The same number of aged-matched Hyp male mice were treated with vehicle only as controls.
# In a similar experiment, Hyp male mice where injected with daily doses of 1 mg/kg secPHEX for 14 days.
# [7] = PTHrP107-139 substrate, inhibitor varied from 0.1 to 50 mM, read-out: concentration giving 50% inhibition of secPHEX activity
# [8] = 1 mM added to the reaction mixture
# [9] = 1 mg/kg daily, individual Hyp mice
molecule,measurement,setting,value
O=P(O)(O)OP(=O)(O)O [pyrophosphate],IC50,[1]; [7],2500 µM
"[Ca+2] [Ca^2+, CaCl2, reference compound]",effect on secPHEX activity in the absence of osteocalcin,[1]; data not shown,no effect
same,EC50,"[2]; CaCl2 varied from 10^−6 to 10^−2 M, constant osteocalcin 2×10^−6M (FIG. 6B), read-out: Ca2+ concentration necessary to reduce the inhibitory potency of osteocalcin by 50%",5000 µM
O=P(O)(O)O [Pi],IC50,[1]; [7],3500 µM
O=C(O)CN(CCN(CC(=O)O)CC(=O)O)CC(=O)O [EDTA],inhibition of secPHEX activity,[1]; [8],fully inhibited
E. coli-produced osteocalcin: human osteocalcin without Gla residues made in E. coli (pGEX-OST vector) (YLYQWLGAPVPYPDPLEPRREVCELNPDCDELADHIGFQEAYRRFYGPV),inhibitory potency on secPHEX compared to osteocalcin extracted from bones,[1]; FIG. 7A,similar
same,modulation of inhibitory activity on secPHEX by Ca2+,[2]; FIG. 7B,not modulated
"osteocalcin: non-collagenous bone protein, mature peptide 49 amino acids with 3 Gla residues; extracted from human bones (YLYQWLGAPVPYPDPL[Gla]PRR[Gla]VC[Gla]LNPDCDELADHIGFQEAYRRFYGPV; disulfide 23-29 (inferred))",inhibition of secPHEX activity,[1]; 5×10^−6 M osteocalcin,approximately 75%
same,degradation by secPHEX,[1]; data not shown,not degraded
same,IC50,"[1]; secPHEX-mediated PTHrP107-139 hydrolysis, FIG. 6A, read-out: concentration giving fifty percent inhibition of secPHEX activity",3.6 µM
"c1cnc2c(c1)ccc1cccnc12 [1,10-phenanthroline]",inhibition of secPHEX activity,[1]; [8],fully inhibited
"secPHEX: soluble, secreted form of recombinant human PHEX zinc metallopeptidase produced in LLC-PK1 cells (protein, UniProt P78562 42-641, looked up, extracellular domain, soluble, secreted form of recombinant human PHEX zinc metallopeptidase produced in LLC-PK1 cells) extracellular domain: QGLLSLQAKQEYCLKPECIEAAAAILSKVNLSVDPCDNFFRFACDGWISNNPIPEDMPSYGVYPWLRHNVDLKLKELLEKSISRRRDTEAIQKAKILYSSCMNEKAIEKADAKPLLHILRHSPFRWPVLESNIGPEGVWSERKFSLLQTLATFRGQYSNSVFIRLYVSPDDKASNEHILKLDQATLSLAVREDYLDNSTEAKSYRDALYKFMVDTAVLLGANSSRAEHDMKSVLRLEIKIAEIMIPHENRTSEAMYNKMNISELSAMIPQFDWLGYIKKVIDTRLYPHLKDISPSENVVVRVPQYFKDLFRILGSERKKTIANYLVWRMVYSRIPNLSRRFQYRWLEFSRVIQGTTTLLPQWDKCVNFIESALPYVVGKMFVDVYFQEDKKEMMEELVEGVRWAFIDMLEKENEWMDAGTKRKAKEKARAVLAKVGYPEFIMNDTHVNEDLKAIKFSEADYFGNVLQTRKYLAQSDFFWLRKAVPKTEWFTNPTTVNAFYSASTNQIRFPAGELQKPFFWGTEYPRSLSYGAIGVIVGHEFTHGFDNNGRKYDKNGNLDPWWSTESEEKFKEKTKCMINQYSNYYWKKAGLNVKGKRTLG",salt concentration below which secPHEX precipitated out,[3],less than 50 mM
same,pH of maximum activity,"[4]; MES buffer pH 5.0 to 7.0, Tris buffer pH 7.0 to 9.0",6.5
same,cleavage site specificity in PTHrP107-139,[4]; fragments identified by MALDI-Tof,amino-terminus of aspartate residues
same,effect on serum phosphate,"[5]; daily injection over 4 days, as a function of dose, Student t test p<0.05",decreased
same,"serum phosphate, Day 0","[5]; dose 1 mg/kg group, 1 mg/kg",1.68 and 1.25 and 1.36 and 1.37
same,"serum phosphate, Day 4","[5]; dose 1 mg/kg i.v. daily for 4 days, 1 mg/kg",1.23 and 1.06 and 1.18 and 1.31
same,"serum phosphate, Day 0","[5]; dose 10 mg/kg group, 10 mg/kg",1.16 and 1.12 and 1.39 and 1.14
same,"serum phosphate, Day 4","[5]; dose 10 mg/kg i.v. daily for 4 days, 10 mg/kg",0.92 and 0.82 and 0.89 and 0.87
same,serum phosphate levels at the 7th and 14th day,[6]; 1 mg/kg daily for 14 days,same level as pretreatment
same,effect on serum alkaline phosphatase levels,"[6]; 1 mg/kg daily for 14 days, normal levels 71+/−11 units, Student t test p<0.05",significantly reduced toward normal levels
same,"alkaline phosphatase level, 7th day of treatment",[6]; [9],183 units and 235 units and 233 units and 199 units and 246 units
same,"alkaline phosphatase level, 14th day of treatment",[6]; [9],196 units (2×) and 208 units and 193 units and 218 units
same,"alkaline phosphatase level, pre-treatment","[6]; 1 mg/kg group, individual Hyp mice, 7 day pre-treatment",292 units and 357 units and 377 units and 348 units and 323 units
secPHEXE581V: inactive secPHEX protein bearing the mutation Glu 581 to Val (protein) QGLLSLQAKQEYCLKPECIEAAAAILSKVNLSVDPCDNFFRFACDGWISNNPIPEDMPSYGVYPWLRHNVDLKLKELLEKSISRRRDTEAIQKAKILYSSCMNEKAIEKADAKPLLHILRHSPFRWPVLESNIGPEGVWSERKFSLLQTLATFRGQYSNSVFIRLYVSPDDKASNEHILKLDQATLSLAVREDYLDNSTEAKSYRDALYKFMVDTAVLLGANSSRAEHDMKSVLRLEIKIAEIMIPHENRTSEAMYNKMNISELSAMIPQFDWLGYIKKVIDTRLYPHLKDISPSENVVVRVPQYFKDLFRILGSERKKTIANYLVWRMVYSRIPNLSRRFQYRWLEFSRVIQGTTTLLPQWDKCVNFIESALPYVVGKMFVDVYFQEDKKEMMEELVEGVRWAFIDMLEKENEWMDAGTKRKAKEKARAVLAKVGYPEFIMNDTHVNEDLKAIKFSEADYFGNVLQTRKYLAQSDFFWLRKAVPKTEWFTNPTTVNAFYSASTNQIRFPAGELQKPFFWGTEYPRSLSYGAIGVIVGHVFTHGFDNNGRKYDKNGNLDPWWSTESEEKFKEKTKCMINQYSNYYWKKAGLNVKGKRTLG,degradation of PTHrP107-139 (in words),"[4]; similar conditions as secPHEX, FIG. 3D",failed to degrade
